Experimental data from patent US20170183403A1.
Read-outs that look alike come from different tables or passages of the source.

Tests used:
[1] = molecular target: human interleukin-2 (human) (UniProt P60568); test: SPR, antibody amine-coupled on GLM chip, hIL-2 in solution
[2] = molecular target: murine IL-2 (mouse) (UniProt P04351); test: SPR, MAB602 amine-coupled on chip, mIL-2 at 1 nM or more
[3] = molecular target: human interleukin-2 (human) (UniProt P60568); test: sandwich ELISA, biotinylated MAB602 on hIL-2 captured by coated 5344, no competitor
[4] = molecular target: T1, Reference peptide no. 23; test: peptide microarray (RepliTope)
T1 sequence (peptide): EEVLNLAQSKNFHLR

[5] = molecular target: T2, Reference peptide no. 22; test: peptide microarray (RepliTope)
T2 sequence (peptide): KPLEEVLNLAQSKNF

[6] = molecular target: T3, Reference peptide no. 10; test: peptide microarray (RepliTope)
T3 sequence (peptide): INNYKNPKLTRMLTF

[7] = molecular target: T4, Reference peptide no. 24; test: peptide microarray (RepliTope)
T4 sequence (peptide): LNLAQSKNFHLRPRD

[8] = molecular target: T5, Reference peptide no. 26; test: peptide microarray (RepliTope)
T5 sequence (peptide): KNFHLRPRDLISNIN

[9] = molecular target: T6, Reference peptide no. 25; test: peptide microarray (RepliTope)
T6 sequence (peptide): AQSKNFHLRPRDLIS

[10] = molecular target: T7, Reference peptide no. 12; test: peptide microarray (RepliTope)
T7 sequence (peptide): PKLTRMLTFKFYMPK

[11] = molecular target: T8, Reference peptide no. 11; test: peptide microarray (RepliTope)
T8 sequence (peptide): YKNPKLTRMLTFKFY

[12] = molecular target: T9, Reference peptide no. 13; test: peptide microarray (RepliTope)
T9 sequence (peptide): TRMLTFKFYMPKKAT

[13] = molecular target: T10, Reference peptide no. 49; test: peptide microarray (RepliTope), Ala mutagenesis set
T10 sequence (peptide): TRMLTFKFAMPKKAT

[14] = molecular target: T3, Reference peptide no. 10; test: as above
[15] = molecular target: T11, Reference peptide no. 48; test: as above
T11 sequence (peptide): PKLTRMLTFKFAMPK

[16] = molecular target: T12, Reference peptide no. 43; test: as above
T12 sequence (peptide): YKNPKLTRMLTAKFY

[17] = molecular target: T13, Reference peptide no. 42; test: as above
T13 sequence (peptide): INNYKNPKLTRMLTA

[18] = molecular target: T7, Reference peptide no. 12; test: as above
[19] = molecular target: T14, Reference peptide no. 47; test: as above
T14 sequence (peptide): YKNPKLTRMLTFKFA

[20] = molecular target: T8, Reference peptide no. 11; test: as above
[21] = molecular target: T15, Reference peptide no. 45; test: as above
T15 sequence (peptide): TRMLTAKFYMPKKAT

[22] = molecular target: T9, Reference peptide no. 13; test: as above
[23] = molecular target: Reference peptide no. 54; test: as above
[24] = molecular target: T16, Reference peptide no. 52; test: as above
T16 sequence (peptide): YKNPKLTRMLTAKFA

[25] = molecular target: Reference peptide no. 53; test: as above
[26] = molecular target: T17, Reference peptide no. 44; test: as above
T17 sequence (peptide): PKLTRMLTAKFYMPK

[27] = molecular target: Reference peptide no. 53; test: as above; remark: listed apart in the source
[28] = molecular target: Reference peptide no. 54; test: as above; remark: listed apart in the source

human interleukin-2 (human), sequence (P60568 21-153 limits assumed): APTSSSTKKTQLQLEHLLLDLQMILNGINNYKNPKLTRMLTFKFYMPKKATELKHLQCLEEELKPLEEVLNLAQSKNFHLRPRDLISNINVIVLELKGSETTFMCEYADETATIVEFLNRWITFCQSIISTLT
murine IL-2 (mouse), sequence (P04351 21-169 limits assumed): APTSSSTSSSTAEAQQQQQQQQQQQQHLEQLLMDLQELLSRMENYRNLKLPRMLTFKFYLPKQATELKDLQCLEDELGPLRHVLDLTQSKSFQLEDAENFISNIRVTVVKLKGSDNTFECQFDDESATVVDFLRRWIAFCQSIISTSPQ

B1: MAB602 (antibody, from another filing, IgG2a, V domains shown)
VH: EVQLQESGPGLVAPSQSLSITCTVSGFSLTNYDISWIRQPPGKGLEWLGVIWTGGGTNYNSGFMSRLSITKDNSKSQVFLKMNSLQTDDTAIYYCVRQGRTPYWGQGTLVTVSA
VL: DIQVTQSPSSLSVSLGDRVTITCKASKDIYNRLAWYQQKPGNAPRLLISGATSLETGVPSRFSGSGSGKDYTLTITSLQTEDVATYYCQQFWGTPYTFGGGTKLEIKR
- Kd [1]: 9.7 nM
- koff [1]: 0.000494 s⁻¹
- response units (RU) [2]: > 10 RU
- absorbance (OD450) [3]: 1.1 OD450
- signal intensity after subtraction of control signal [4]: 13300 AU
- signal intensity after subtraction of control signal [5]: 5000 AU
- signal intensity after subtraction of control signal [6]: 46000 AU
- signal intensity after subtraction of control signal [7]: 3290 AU
- signal intensity after subtraction of control signal [8]: 7510 AU
- signal intensity after subtraction of control signal [9]: 5220 AU
- signal intensity after subtraction of control signal [10]: 28800 AU
- signal intensity after subtraction of control signal [11]: 49700 AU
- signal intensity after subtraction of control signal [12]: 5250 AU
- signal intensity after subtraction of control signal [13]: 3020 AU
- signal intensity after subtraction of control signal [14]: 46000 AU
- signal intensity after subtraction of control signal [15]: 13400 AU
- signal intensity after subtraction of control signal [16]: 42800 AU
- signal intensity after subtraction of control signal [17]: 246 AU
- signal intensity after subtraction of control signal [18]: 28800 AU
- signal intensity after subtraction of control signal [19]: 21400 AU
- signal intensity after subtraction of control signal [20]: 49700 AU
- signal intensity after subtraction of control signal [21]: 0 AU
- signal intensity after subtraction of control signal [22]: 5250 AU
- signal intensity after subtraction of control signal [23]: 0 AU
- signal intensity after subtraction of control signal [24]: 13100 AU
- signal intensity after subtraction of control signal [25]: 0 AU
- signal intensity after subtraction of control signal [26]: 5030 AU

B2: NARA1 (antibody, mouse IgG2a, kappa)
heavy: QVQLQQSGAELVRPGTSVKVSCKASGYAFTNYLIEWVKQRPGQGLEWIGVINPGSGGTNYNEKFKGKATLTADKSSSTAYMQLSSLTSDDSAVYFCARWRGDGYYAYFDVWGAGTTVTVSSAKTTAPSVYPLAPVCGDTTGSSVTLGCLVKGYFPEPVTLTWNSGSLSSGVHTFPAVLQSDLYTLSSSVTVTSSTWPSQSITCNVAHPASSTKVDKKIEPRGPTIKPCPPCKCPAPNLLGGPSVFIFPPKIKDVLMISLSPIVTCVVVDVSEDDPDVQISWFVNNVEVHTAQTQTHREDYNSTLRVVSALPIQHQDWMSGKEFKCKVNNKDLPAPIERTISKPKGSVRAPQVYVLPPPEEEMTKKQVTLTCMVTDFMPEDIYVEWTNNGKTELNYKNTEPVLDSDGSYFMYSKLRVEKKNWVERNSYSCSVVHEGLHNHHTTKSFSRTPGK
light: not shown
- signal intensity after subtraction of control signal [27]: 24 AU
- signal intensity after subtraction of control signal [28]: 0 AU
